According to US20230340114A1 (IMMUNE ONC THERAPEUTICS, published 2023):

Tests used:
[1] = biological target: T1, flag-tagged cynomolgus monkey LILRB4 expressed on CHO-K1 cells (cynomolgus monkey); test: FACS, CHO-stable cells expressing cyno LILRB4
T1 construct: whole, on cells; also called cyno LILRB4

[2] = biological target: T2, human LILRB4 expressed on cells (human, UniProt Q8NHJ6 22-448); test: FACS, CHO-stable cells expressing human LILRB4
T2 construct: whole, on cells; also called ILT3; CD85k

[3] = biological target: T2, human LILRB4 expressed on cells; test: FACS, CHO-K1 cells stably expressing human LILRB4; H7K3 in PBS, T0
Protocol: (§1) EC50 FACS: Stable CHO-K1 cells expressing either human LILRB4 or flag-tagged cynomolgus monkey LILRB4 were used to determine binding capacity of stability samples of H7K3 antibody. CHO-K1 cells (1×10⁵) were stained with serially titrated stability samples followed by secondary staining with fluorescent-conjugated anti-human IgG (Biolegend). Geometric mean fluorescence (MFI) was measured and EC₅₀ were calculated by Prism.
(§2) The inventors then assessed the stability of the antibody H7K3 at 40° C. in PBS or a formulation buffer, the results of which are summarized in the Tables 2 and 3.

[4] = biological target: T1, flag-tagged cynomolgus monkey LILRB4 …; test: FACS, CHO-K1 cells stably expressing flag-tagged cyno LILRB4; H7K3 in PBS, T0
Protocol: as §1, §2

[5] = biological target: T2, human LILRB4 expressed on cells; test: FACS, CHO-K1 cells stably expressing human LILRB4; H7K3 in formulation buffer, T0
Protocol: as §1

[6] = biological target: T2, human LILRB4 expressed on cells; test: FACS, CHO-K1 cells stably expressing human LILRB4; H7K3 in PBS after 2 weeks at 40°C
Protocol: as §1, §2

[7] = biological target: T2, human LILRB4 expressed on cells; test: FACS, CHO-K1 cells stably expressing human LILRB4; H7K3 in PBS after 4 weeks at 40°C
Protocol: as §1, §2

[8] = biological target: T1, flag-tagged cynomolgus monkey LILRB4 …; test: FACS, CHO-K1 cells stably expressing flag-tagged cyno LILRB4; H7K3 in formulation buffer, T0
Protocol: as §1, §2

[9] = biological target: T1, flag-tagged cynomolgus monkey LILRB4 …; test: FACS, CHO-K1 cells stably expressing flag-tagged cyno LILRB4; H7K3 in PBS after 2 weeks at 40°C
Protocol: as §1, §2

[10] = biological target: T1, flag-tagged cynomolgus monkey LILRB4 …; test: FACS, CHO-K1 cells stably expressing flag-tagged cyno LILRB4; H7K3 in PBS after 4 weeks at 40°C
Protocol: as §1, §2

[11] = biological target: T2, human LILRB4 expressed on cells; test: FACS, CHO-K1 cells stably expressing human LILRB4; H7K3 reference row of the PBS stability table
Protocol: as §1, §2

[12] = biological target: T2, human LILRB4 expressed on cells; test: FACS, CHO-K1 cells stably expressing human LILRB4; H7K3 in formulation buffer after 2 weeks at 40°C
Protocol: as §1, §2

[13] = biological target: T2, human LILRB4 expressed on cells; test: FACS, CHO-K1 cells stably expressing human LILRB4; H7K3 in formulation buffer after 4 weeks at 40°C
Protocol: as §1, §2

[14] = biological target: T1, flag-tagged cynomolgus monkey LILRB4 …; test: FACS, CHO-K1 cells stably expressing flag-tagged cyno LILRB4; H7K3 reference row of the PBS stability table
Protocol: as §1

[15] = biological target: T1, flag-tagged cynomolgus monkey LILRB4 …; test: FACS, CHO-K1 cells stably expressing flag-tagged cyno LILRB4; H7K3 in formulation buffer after 2 weeks at 40°C
Protocol: as §1, §2

[16] = biological target: T1, flag-tagged cynomolgus monkey LILRB4 …; test: FACS, CHO-K1 cells stably expressing flag-tagged cyno LILRB4; H7K3 in formulation buffer after 4 weeks at 40°C
Protocol: as §1, §2

[17] = biological target: T1, flag-tagged cynomolgus monkey LILRB4 …; test: FACS, CHO-K1 cells stably expressing flag-tagged cyno LILRB4; H7K3 reference row of the formulation buffer stability table
Protocol: as §1

[18] = biological target: T2, human LILRB4 expressed on cells; test: FACS, CHO-K1 cells stably expressing human LILRB4; H7K3 reference row of the formulation buffer stability table; H7K3 reference row of Table 3 (formulation buffer), not a T0 or 40° C. sample
Protocol: as §1

EC50 [1]: 1.33 nM
EC50 [2]: 0.543 nM
EC50 [3]: 0.734 nM
EC50 [4]: 1.21 nM
EC50 [5]: 0.557 nM
EC50 [6]: 0.895 nM
EC50 [7]: 0.696 nM
EC50 [8]: 0.883 nM
EC50 [9]: 1.71 nM
EC50 [10]: 1.72 nM
EC50 [11]: 0.65 nM
EC50 [12]: 1.42 nM
EC50 [13]: 2.14 nM
EC50 [14]: 1.19 nM
EC50 [15]: 3.81 nM
EC50 [16]: 6.05 nM
EC50 [17]: 1.19 nM
EC50 [18]: 0.65 nM
B1: H7K3 (antibody, V domains shown)
VH: EVQLVESGGGLVQPGGSLRLSCAASGFSLSSSYWISWVRQAPGKGLEWIGSIDSGSVGITYYATWVKGRFTISRDNSKNTLYLQMNSLRAEDTAVYYCARHGDNWALDLWGQGTLVTVSS
VL: DIQMTQSPSTLSASVGDRVTITCRASQSINSWLAWYQQKPGKAPKLLIYKASTLASGVPSRFSGSGSGTEFTLTISSLQPDDFATYYCQHGYIRGDLDNVFGGGTKVEIK
notes: Humanized from rabbit antibody B4-193; also called humanized anti-LILRB4 antibody; WT
